In article PMC5389562:

Target: T1, mCherry-U2AF35 (UniProt Q01081)
T1 sequence: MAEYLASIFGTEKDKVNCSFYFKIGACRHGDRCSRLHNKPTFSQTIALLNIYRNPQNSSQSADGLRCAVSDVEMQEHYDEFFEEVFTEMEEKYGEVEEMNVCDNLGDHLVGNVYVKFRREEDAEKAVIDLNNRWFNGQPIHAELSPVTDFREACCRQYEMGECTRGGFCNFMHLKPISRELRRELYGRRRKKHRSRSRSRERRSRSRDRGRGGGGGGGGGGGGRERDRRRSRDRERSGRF
Experiment: single-molecule colocalization/bleaching
Conditions: 5' GMPS; HEK293T nuclear extract expressing fusion proteins, preincubated 15 min with ATP/phosphocreatine or ATP-depleted at 30 C; pre-mRNA 62.5 nM; +ATP reactions …

GloC pre-mRNA was tested, and the binding signal (% RNA colocalized) was 20.
